This is an account of results in patent US20200399381A1 (I MAB BIOPHARMA US, published 2020).

T1: human IFNAR-1 protein (form not stated) (human, UniProt P17181 28-436, limits assumed)
T1 construct: bispecific ELISA
T1 sequence (looked up): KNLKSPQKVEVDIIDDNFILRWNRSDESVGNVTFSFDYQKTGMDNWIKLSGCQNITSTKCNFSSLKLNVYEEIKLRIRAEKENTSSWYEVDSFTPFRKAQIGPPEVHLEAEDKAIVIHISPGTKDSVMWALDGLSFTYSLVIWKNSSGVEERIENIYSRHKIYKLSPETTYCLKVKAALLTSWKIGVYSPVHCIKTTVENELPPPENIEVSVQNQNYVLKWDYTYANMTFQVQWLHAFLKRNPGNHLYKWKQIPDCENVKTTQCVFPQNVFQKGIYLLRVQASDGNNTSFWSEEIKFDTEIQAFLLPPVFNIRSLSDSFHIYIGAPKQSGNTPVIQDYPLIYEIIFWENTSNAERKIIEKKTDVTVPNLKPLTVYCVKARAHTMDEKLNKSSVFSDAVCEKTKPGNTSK

B1: 8G11 humanized VH3 + VL3 (antibody, V domains shown)
VH: QVQLVQSGAEVVKPGASVKVSCKGSGFNIKDYYMHWVKQAPGQGLEWIGRIDPEDAETKYAPKFQGRVTITADTSTSTVYLELSSLRSEDTAVYYCARGGNFYVMDYWGQGTLVTVSS
VL: DIQLTQSPSFLSTSVGDRVTITCKASQNVGTNVVWYQQKPGKSPKVLIYSASYRVSGVPSRFSGSGSGTEFTLIISSVQPEDFATYFCQQKNNYPYTFGQGTKLEIK
notes: Humanized IgG expressed in HEK293; also called VH3 + VL3 (8G11)
B2: 485G10 humanized VH0 + VL1 (antibody, V domains shown)
VH: QVQLVQSGAEVKKPGASVKVSCKASGFNIKDYYIHWVRQAPGQGLEWMGRIDPEDAETKYAPKFQGRVTMTRDTSISTAYMELSRLRSDDTVVYYCARYHGYWALDYWGQGTLVTVSS
VL: DIQMTQSPSSLSASVGDRVTITCKTSQNVGTNVAWFQQKPGKAPKSLIYSTSYRYSGVPSRFSGSGSGTDFTLTISSLQPEDFATYYCHQYFSYPYTFGPGTKVDIK
notes: Humanized IgG expressed in HEK293; also called VH0 + VL1 (485G10)
B3: 485G10 humanized VH3 + VL1 (antibody, V domains shown)
VH: QVQLVQSGAEVKKPGASVKLSCKGSGFNIKDYYIHWVKQAPGQGLEWIGRIDPEDAETKYAPKFQGRATITADTSISTAYLELSRLRSDDTVVYYCGRYHGYWALDYWGQGTLVTVSS
VL: DIQMTQSPSSLSASVGDRVTITCKTSQNVGTNVAWFQQKPGKAPKSLIYSTSYRYSGVPSRFSGSGSGTDFTLTISSLQPEDFATYYCHQYFSYPYTFGPGTKVDIK
notes: Humanized IgG expressed in HEK293; also called VH3 + VL1 (485G10)
B4: 485G10 humanized VH2 + VL4 (antibody, V domains shown)
VH: QVQLVQSGAEVKKPGASVKLSCKASGFNIKDYYIHWVKQAPGQGLEWIGRIDPEDAETKYAPKFQGRVTMTADTSISTAYMELSRLRSDDTVVYYCGRYHGYWALDYWGQGTLVTVSS
VL: DIQMTQSPSSLSTSVGDRVTVTCKTSQNVGTNVAWYQQKPGKAPKPLIYSTSYRYSGVPSRFSGSGSGTDFTLTISSVQPEDFATYYCHQYFSYPYTFGPGTKLDIK
notes: Humanized IgG expressed in HEK293; also called VH2 + VL4 (485G10)
B5: 485G10 humanized VH0 + VL4 (antibody, V domains shown)
VH: QVQLVQSGAEVKKPGASVKVSCKASGFNIKDYYIHWVRQAPGQGLEWMGRIDPEDAETKYAPKFQGRVTMTRDTSISTAYMELSRLRSDDTVVYYCARYHGYWALDYWGQGTLVTVSS
VL: DIQMTQSPSSLSTSVGDRVTVTCKTSQNVGTNVAWYQQKPGKAPKPLIYSTSYRYSGVPSRFSGSGSGTDFTLTISSVQPEDFATYYCHQYFSYPYTFGPGTKLDIK
notes: Humanized IgG expressed in HEK293; also called VH0 + VL4 (485G10)
B6: 485G10 humanized VH2 + VL1 (antibody, V domains shown)
VH: QVQLVQSGAEVKKPGASVKLSCKASGFNIKDYYIHWVKQAPGQGLEWIGRIDPEDAETKYAPKFQGRVTMTADTSISTAYMELSRLRSDDTVVYYCGRYHGYWALDYWGQGTLVTVSS
VL: DIQMTQSPSSLSASVGDRVTITCKTSQNVGTNVAWFQQKPGKAPKSLIYSTSYRYSGVPSRFSGSGSGTDFTLTISSLQPEDFATYYCHQYFSYPYTFGPGTKVDIK
notes: Humanized IgG expressed in HEK293; also called VH2 + VL1 (485G10)
B7: 485G10 humanized VH3 + VL2 (antibody, V domains shown)
VH: QVQLVQSGAEVKKPGASVKLSCKGSGFNIKDYYIHWVKQAPGQGLEWIGRIDPEDAETKYAPKFQGRATITADTSISTAYLELSRLRSDDTVVYYCGRYHGYWALDYWGQGTLVTVSS
VL: DIQMTQSPSSLSTSVGDRVTITCKTSQNVGTNVAWYQQKPGKAPKPLIYSTSYRYSGVPSRFSGSGSGTDFTLTISSLQPEDFATYYCHQYFSYPYTFGPGTKVDIK
notes: Humanized IgG expressed in HEK293; also called VH3 + VL2 (485G10)
B8: 485G10 humanized VH3 + VL3 (antibody, V domains shown)
VH: QVQLVQSGAEVKKPGASVKLSCKGSGFNIKDYYIHWVKQAPGQGLEWIGRIDPEDAETKYAPKFQGRATITADTSISTAYLELSRLRSDDTVVYYCGRYHGYWALDYWGQGTLVTVSS
VL: DIQMTQSPSSLSTSVGDRVTITCKTSQNVGTNVAWYQQKPGKAPKPLIYSTSYRYSGVPSRFSGSGSGTDFTLTISSVQPEDFATYYCHQYFSYPYTFGPGTKLDIK
notes: Humanized IgG expressed in HEK293; also called VH3 + VL3 (485G10)
B9: 485G10 humanized VH0 + VL2 (antibody, V domains shown)
VH: QVQLVQSGAEVKKPGASVKVSCKASGFNIKDYYIHWVRQAPGQGLEWMGRIDPEDAETKYAPKFQGRVTMTRDTSISTAYMELSRLRSDDTVVYYCARYHGYWALDYWGQGTLVTVSS
VL: DIQMTQSPSSLSTSVGDRVTITCKTSQNVGTNVAWYQQKPGKAPKPLIYSTSYRYSGVPSRFSGSGSGTDFTLTISSLQPEDFATYYCHQYFSYPYTFGPGTKVDIK
notes: Humanized IgG expressed in HEK293; also called VH0 + VL2 (485G10)
B10: 485G10 humanized VH3 + VL4 (antibody, V domains shown)
VH: QVQLVQSGAEVKKPGASVKLSCKGSGFNIKDYYIHWVKQAPGQGLEWIGRIDPEDAETKYAPKFQGRATITADTSISTAYLELSRLRSDDTVVYYCGRYHGYWALDYWGQGTLVTVSS
VL: DIQMTQSPSSLSTSVGDRVTVTCKTSQNVGTNVAWYQQKPGKAPKPLIYSTSYRYSGVPSRFSGSGSGTDFTLTISSVQPEDFATYYCHQYFSYPYTFGPGTKLDIK
notes: Humanized IgG expressed in HEK293; also called VH3 + VL4 (485G10)
B11: 485G10 humanized VH1 + VL1 (antibody, V domains shown)
VH: QVQLVQSGAEVKKPGASVKVSCKASGFNIKDYYIHWVRQAPGQGLEWMGRIDPEDAETKYAPKFQGRVTMTADTSISTAYMELSRLRSDDTVVYYCARYHGYWALDYWGQGTLVTVSS
VL: DIQMTQSPSSLSASVGDRVTITCKTSQNVGTNVAWFQQKPGKAPKSLIYSTSYRYSGVPSRFSGSGSGTDFTLTISSLQPEDFATYYCHQYFSYPYTFGPGTKVDIK
notes: Humanized IgG expressed in HEK293; also called VH1 + VL1 (485G10)
B12: 485G10 humanized VH0 + VL3 (antibody, V domains shown)
VH: QVQLVQSGAEVKKPGASVKVSCKASGFNIKDYYIHWVRQAPGQGLEWMGRIDPEDAETKYAPKFQGRVTMTRDTSISTAYMELSRLRSDDTVVYYCARYHGYWALDYWGQGTLVTVSS
VL: DIQMTQSPSSLSTSVGDRVTITCKTSQNVGTNVAWYQQKPGKAPKPLIYSTSYRYSGVPSRFSGSGSGTDFTLTISSVQPEDFATYYCHQYFSYPYTFGPGTKLDIK
notes: Humanized IgG expressed in HEK293; also called VH0 + VL3 (485G10)
B13: 485G10 humanized VH2 + VL2 (antibody, V domains shown)
VH: QVQLVQSGAEVKKPGASVKLSCKASGFNIKDYYIHWVKQAPGQGLEWIGRIDPEDAETKYAPKFQGRVTMTADTSISTAYMELSRLRSDDTVVYYCGRYHGYWALDYWGQGTLVTVSS
VL: DIQMTQSPSSLSTSVGDRVTITCKTSQNVGTNVAWYQQKPGKAPKPLIYSTSYRYSGVPSRFSGSGSGTDFTLTISSLQPEDFATYYCHQYFSYPYTFGPGTKVDIK
notes: Humanized IgG expressed in HEK293; also called VH2 + VL2 (485G10)

One assay addresses T1, human IFNAR-1 protein (form not stated). The assay can be described thus: affinity ranking of expressed humanized 8G11 IgGs (method not named).
B1: binding was characterised by a dissociation constant (Kd) of 0.364 nM; the koff (in general, the first-order rate constant of dissociation) is 0.00011 s⁻¹; the kon (commonly a measure of how fast the partners come together) worked out at 301000 M⁻¹ s⁻¹.

Another assay shares this target. The assay can be described thus: affinity ranking of expressed humanized 485G10 IgGs (method not named).
Take B2: binding was characterised by a dissociation constant (Kd) of 9.33 nM, the koff was 0.00475 s⁻¹ and the kon is 509000 M⁻¹ s⁻¹.

Turning to B3, binding was put at a Kd of 19.1 nM, the koff came out at 0.0185 s⁻¹ and the kon was found to be 971000 M⁻¹ s⁻¹.

For B4, the Kd (commonly a measure of binding affinity in units of concentration) was 0.99 nM, the koff was determined as 0.0003 s⁻¹ and the association rate constant (kon) was found to be 303000 M⁻¹ s⁻¹.

With B5, the affinity, expressed as Kd, was 1.25 nM; the koff worked out at 0.000318 s⁻¹; the on-rate constant (kon) was 255000 M⁻¹ s⁻¹.

For the molecule B6, binding was characterised by a dissociation constant (Kd) of 20.5 nM, the koff was found to be 0.00663 s⁻¹ and the kon amounted to 323000 M⁻¹ s⁻¹.

As to B7, the Kd worked out at 0.864 nM, the koff was 0.000264 s⁻¹ and the kon was 306000 M⁻¹ s⁻¹.

In the case of B8, the Kd worked out at 0.841 nM, the off-rate (koff) worked out at 0.000279 s⁻¹ and the kon worked out at 332000 M⁻¹ s⁻¹.

Take B9: the Kd was 1.57 nM, the koff came out at 0.000439 s⁻¹ and the association rate constant (kon) came to 279000 M⁻¹ s⁻¹.

Take B10: the Kd stood at 0.766 nM, the koff was found to be 0.000271 s⁻¹ and the kon is 354000 M⁻¹ s⁻¹.

Take B11: the Kd turned out to be 3.14 nM, the koff stood at 0.00103 s⁻¹ and the kon came to 328000 M⁻¹ s⁻¹.

For B12, binding was characterised by a dissociation constant (Kd) of 1.07 nM, the koff is 0.000316 s⁻¹ and the kon came out at 294000 M⁻¹ s⁻¹.

With B13, the Kd turned out to be 0.906 nM, the koff worked out at 0.000298 s⁻¹ and the association rate constant (kon) worked out at 329000 M⁻¹ s⁻¹.
